Measurements: patent US7220539

How the values were obtained:
[1] = molecular target: GAL4 ΔPH (amino acids 150-480) Akt construct (yeast) (UniProt P04386); assay: cell-based or functional assay
[2] = test system: TRB-3 (wild-type, recombinant; tag and species not stated)
[3] = test system: T1, TRB-2
T1 sequence: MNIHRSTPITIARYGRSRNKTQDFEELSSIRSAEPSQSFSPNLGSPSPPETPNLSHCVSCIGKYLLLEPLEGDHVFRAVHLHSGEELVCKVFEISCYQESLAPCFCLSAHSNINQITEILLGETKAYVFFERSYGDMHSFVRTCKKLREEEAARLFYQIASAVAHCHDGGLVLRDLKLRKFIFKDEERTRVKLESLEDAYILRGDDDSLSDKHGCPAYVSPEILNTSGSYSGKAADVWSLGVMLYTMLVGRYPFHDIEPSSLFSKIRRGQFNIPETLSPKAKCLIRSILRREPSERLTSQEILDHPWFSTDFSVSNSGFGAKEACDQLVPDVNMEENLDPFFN

[4] = molecular target: Akt (over-expressed or present in transfected cells; isoform and tag not stated); assay: cell-based or functional assay

UniProt P04386, sequence (P04386 1-147, stated change not applied): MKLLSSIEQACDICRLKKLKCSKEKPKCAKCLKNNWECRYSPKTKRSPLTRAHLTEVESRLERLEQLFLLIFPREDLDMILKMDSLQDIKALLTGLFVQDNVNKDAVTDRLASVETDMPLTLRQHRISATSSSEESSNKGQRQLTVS

TRB-3-VP16 (from UniProt P06492 411-490)
GAL4 luciferase reporter activity, mammalian two hybrid assay in HEK293 cells, relative to control VP16 expression vector [1]: 5 fold

HA-tagged Akt1
Akt activity, in vitro kinase assays with a consensus Akt peptide substrate [2]: Over-expression of TRB-3 reduced Akt activity

Akt (over-expressed or present in transfected cells; isoform and tag not stated)
phosphorylation of Akt [3]: TRB-2 was similarly effective at blocking Akt phosphorylation

TRB-3 (wild-type, recombinant; tag and species not stated)
forkhead (Foxo1) activity on an IGFBP1 reporter in HEK293 cells [4]: 3 fold
